{"source": "patent US20070128627A1", "about": "(US Dept. of Health and Human Services, published 2007)", "binders": {"B1": {"name": "GAL/STAMP(623-834) (other)", "chain": "MKLLSSIEQACDICRLKKLKCSKEKPKCAKCLKNNWECRYSPKTKRSPLTRAHLTEVESRLERLEQLFLLIFPREDLDMILKMDSLQDIKALLTGLFVQDNVNKDAVTDRLASVETDMPLTLRQHRISATSSSEESSNKGQRQLTVSENTPKENSMKVREWNNKGGHCCKLETQELEPKFNLMQILQDNGNLSKMQARIAFSAYLQHVQIRLMKDSGGQTFSASWAAKEDEQMELVVRFLKRASNNLQHSLRMVLPSRRLALLERRRILAHQLGDFIIVYNKETEQMAEKKSKKKVEEEEEDGVNMENFQEFIRQASEAELEEVLTFYTQKNKSASVFLGTHSKISKNNNNYSDSGAKG", "notes": "domain: GAL-DBD; Expressed in CV-1 cells for the mammalian two-hybrid assay; also called Gal/6-6CL1"}}, "key": {"[1]": {"target": "T1, VP16/GR (UniProt P06536 1-795)", "T1 construct": "Assayed with and without 1 µM Dex", "T1 sequence": "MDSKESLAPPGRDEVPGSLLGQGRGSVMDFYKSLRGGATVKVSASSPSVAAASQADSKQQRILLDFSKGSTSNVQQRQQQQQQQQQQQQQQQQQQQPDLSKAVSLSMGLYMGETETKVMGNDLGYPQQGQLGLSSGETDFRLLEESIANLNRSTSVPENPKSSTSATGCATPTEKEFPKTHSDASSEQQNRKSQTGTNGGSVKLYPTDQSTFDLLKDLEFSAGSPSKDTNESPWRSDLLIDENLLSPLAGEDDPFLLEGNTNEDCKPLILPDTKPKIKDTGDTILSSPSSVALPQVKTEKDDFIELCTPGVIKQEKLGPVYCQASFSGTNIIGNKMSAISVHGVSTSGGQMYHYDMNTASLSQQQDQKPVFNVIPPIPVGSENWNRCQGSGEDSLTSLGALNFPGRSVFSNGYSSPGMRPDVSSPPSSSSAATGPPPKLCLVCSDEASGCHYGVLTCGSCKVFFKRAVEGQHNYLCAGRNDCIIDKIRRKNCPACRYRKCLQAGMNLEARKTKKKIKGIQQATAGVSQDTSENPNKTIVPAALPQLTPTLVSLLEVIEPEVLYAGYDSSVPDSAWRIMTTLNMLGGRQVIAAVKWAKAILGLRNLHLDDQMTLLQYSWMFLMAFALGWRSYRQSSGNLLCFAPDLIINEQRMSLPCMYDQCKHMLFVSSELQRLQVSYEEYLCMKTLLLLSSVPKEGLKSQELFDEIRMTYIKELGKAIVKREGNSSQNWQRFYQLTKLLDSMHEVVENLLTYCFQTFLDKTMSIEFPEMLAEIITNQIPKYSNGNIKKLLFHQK", "test": "mammalian two-hybrid ±1 µM Dex (FIG. 6B)"}, "[2]": {"target": "T2, VP16/TIF2.4 (human, UniProt Q15596 624-1010)", "T2 construct": "Only the TIF2.4 fragment is present; The text gives no limits for it, so the whole TIF2 entry is named", "T2 sequence": "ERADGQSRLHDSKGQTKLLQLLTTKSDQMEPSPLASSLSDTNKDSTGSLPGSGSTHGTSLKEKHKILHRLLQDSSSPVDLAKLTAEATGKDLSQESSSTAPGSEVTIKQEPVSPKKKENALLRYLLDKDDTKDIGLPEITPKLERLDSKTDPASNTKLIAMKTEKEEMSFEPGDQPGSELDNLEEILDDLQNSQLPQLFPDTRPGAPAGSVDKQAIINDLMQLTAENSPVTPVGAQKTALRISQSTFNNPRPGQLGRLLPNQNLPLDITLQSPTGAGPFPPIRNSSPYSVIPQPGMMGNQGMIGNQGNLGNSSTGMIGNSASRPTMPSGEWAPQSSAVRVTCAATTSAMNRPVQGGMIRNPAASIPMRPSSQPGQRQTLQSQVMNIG", "test": "mammalian two-hybrid in CV-1 cells, relative luciferase activity (FIG. 6A)", "excerpt": "Triplicate samples of CV-1 cells were transiently transfected with VP16 or VP16/TIF2.4 in FIG. 6A experiments. […] After determining the relative luciferase activities as described in FIG. 2B and 2C, the average values±S.E.M. from 2-5 experiments were plotted."}}}
{"binder": "B1", "values": [{"measurement": "binding result", "setting": "[1]", "value": "no binding"}, {"measurement": "average fold increase above the VP16 control", "setting": "[2]", "value": 11, "unit": "fold"}]}
